Literature values as cited in patent US20080279771A1, “Novel Imaging Agents for Cancer” (GE HEALTHCARE LIMITED, priority 2005, published 2008).

Target: neuropilin-1 receptor (NP-1) (Homo sapiens, UniProt O14786)
Conditions: NP-1 on tumour cells; read-out: Kd of binding of SEM-3A to NP-1

neuropilin-1 receptor (NP-1), sequence (O14786 22-923): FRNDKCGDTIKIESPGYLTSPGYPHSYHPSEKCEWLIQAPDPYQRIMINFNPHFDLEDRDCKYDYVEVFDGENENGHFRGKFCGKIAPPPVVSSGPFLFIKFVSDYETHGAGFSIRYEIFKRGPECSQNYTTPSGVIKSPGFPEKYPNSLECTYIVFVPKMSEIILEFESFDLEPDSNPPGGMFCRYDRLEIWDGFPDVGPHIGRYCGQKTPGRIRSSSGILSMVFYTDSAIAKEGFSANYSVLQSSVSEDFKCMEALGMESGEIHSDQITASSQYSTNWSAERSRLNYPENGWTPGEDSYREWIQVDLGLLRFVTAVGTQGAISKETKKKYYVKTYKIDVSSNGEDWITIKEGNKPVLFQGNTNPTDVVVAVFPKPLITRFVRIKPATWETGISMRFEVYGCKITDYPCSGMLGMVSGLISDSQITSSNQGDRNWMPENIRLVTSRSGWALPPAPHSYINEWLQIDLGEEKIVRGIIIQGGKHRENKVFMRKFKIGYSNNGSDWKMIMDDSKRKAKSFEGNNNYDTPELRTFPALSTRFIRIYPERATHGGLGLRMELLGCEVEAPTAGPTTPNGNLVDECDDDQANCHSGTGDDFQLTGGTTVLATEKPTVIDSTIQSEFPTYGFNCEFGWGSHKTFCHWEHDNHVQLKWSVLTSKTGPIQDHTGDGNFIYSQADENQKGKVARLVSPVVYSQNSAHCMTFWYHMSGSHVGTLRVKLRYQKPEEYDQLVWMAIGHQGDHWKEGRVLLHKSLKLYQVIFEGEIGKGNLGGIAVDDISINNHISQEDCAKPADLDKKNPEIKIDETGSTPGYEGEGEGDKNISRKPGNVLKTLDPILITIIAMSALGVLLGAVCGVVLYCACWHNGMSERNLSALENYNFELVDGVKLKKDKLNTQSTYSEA

B1: SEM-3A: Semaphorin-3A, biological peptide that binds the neuropilin-1 receptor; human precursor form consists of 771 amino acids (protein, UniProt Q14563 21-771, looked up)
Semaphorin-3A: NYQNGKNNVPRLKLSYKEMLESNNVITFNGLANSSSYHTFLLDEERSRLYVGAKDHIFSFDLVNIKDFQKIVWPVSYTRRDECKWAGKDILKECANFIKVLKAYNQTHLYACGTGAFHPICTYIEIGHHPEDNIFKLENSHFENGRGKSPYDPKLLTASLLIDGELYSGTAADFMGRDFAIFRTLGHHHPIRTEQHDSRWLNDPKFISAHLISESDNPEDDKVYFFFRENAIDGEHSGKATHARIGQICKNDFGGHRSLVNKWTTFLKARLICSVPGPNGIDTHFDELQDVFLMNFKDPKNPVVYGVFTTSSNIFKGSAVCMYSMSDVRRVFLGPYAHRDGPNYQWVPYQGRVPYPRPGTCPSKTFGGFDSTKDLPDDVITFARSHPAMYNPVFPMNNRPIVIKTDVNYQFTQIVVDRVDAEDGQYDVMFIGTDVGTVLKVVSIPKETWYDLEEVLLEEMTVFREPTAISAMELSTKQQQLYIGSTAGVAQLPLHRCDIYGKACAECCLARDPYCAWDGSACSRYFPTAKRRTRRQDIRNGDPLTHCSDLHHDNHHGHSPEERIIYGVENSSTFLECSPKSQRALVYWQFQRRNEERKEEIRVDDHIIRTDQGLLLRSLQQKDSGNYLCHAVEHGFIQTLLKVTLEVIDTEHLEELLHKDDDGDGSKTKEMSNSMTPSQKVWYRDFMQLINHPNLNTMDEFCEQVWKRDRKQRRQRPGHTPGNSNKWKHLQENKKGRNRRTHEFERAPRSV
Kd: ~0.28 nM
